Assay results published in patent US20220143089A1.

Legend:
[1] = target: DR5-41BB fusion protein (SEQ ID NO: 4); assay: cell-based or functional assay
[2] = target: DR5-41BB fusion protein (SEQ ID NO: 4); assay: flow cytometry, primary expanded NK cells electroporated with DR5-41BB mRNA; signal is endogenous DR5 plus DR5-41BB
[3] = target: TRAIL death receptor 5 (DR5) (UniProt O14763); assay: flow cytometry, mock electroporated Jurkat T cells (endogenous DR5)
[4] = target: DR5-41BB fusion protein (SEQ ID NO: 4); assay: flow cytometry, Jurkat T cells transfected with DR5-41BB; signal is endogenous DR5 plus DR5-41BB
[5] = target: TRAIL death receptor 5 (DR5) (UniProt O14763); assay: flow cytometry, Jurkat T cells stained with anti-DR5 (FMO control 1.29%)
[6] = target: TRAIL death receptor 5 (DR5) (UniProt O14763); assay: flow cytometry, mock electroporated primary expanded NK cells (endogenous DR5)
[7] = target: DR5-41BB fusion protein (SEQ ID NO: 4); assay: flow cytometry, Jurkat T cells transfected with DR5-41BB; DR5-41BB specific signal after mock is set to MFI=0
[8] = target: DR5-41BB fusion protein (SEQ ID NO: 4); assay: flow cytometry, primary expanded NK cells electroporated with DR5-41BB mRNA; 608 minus 208

Sequence of DR5-41BB fusion protein (SEQ ID NO: 4) (chain, as listed by the source limits assumed): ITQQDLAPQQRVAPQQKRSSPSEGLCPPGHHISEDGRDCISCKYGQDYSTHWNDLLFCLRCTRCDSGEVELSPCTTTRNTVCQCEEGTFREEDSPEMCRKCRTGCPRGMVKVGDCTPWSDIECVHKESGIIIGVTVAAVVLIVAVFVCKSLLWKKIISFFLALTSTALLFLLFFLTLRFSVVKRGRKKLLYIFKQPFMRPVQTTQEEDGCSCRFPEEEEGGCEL

Substance | cell death in T cells (Propidium Iodide, flow cytometry, 16 hours, 100 ng/ml TRAIL) [1] [%] | mean MFI [2] [MFI] | mean MFI [3] [MFI] | mean MFI [4] [MFI] | percent of cells stained [5] [%] | mean MFI [6] [MFI] | mean MFI (mock background subtracted) [7] [MFI] | mean MFI (mock background subtracted) [8] [MFI]
soluble TRAIL ligand (from UniProt P50591 114-281) | 15 |  |  |  |  |  |  | 
anti-DR5 antibody (Clone: DJR2-4, Source: Biolegend, Cat: 307406) |  | 608 | 698 | 2070 | 86.8 | 208 | 1380 | 400
